Assay [1] addresses T1, mouse Siglec15-his protein (mouse).
T1 construct: In house made
T1 chain: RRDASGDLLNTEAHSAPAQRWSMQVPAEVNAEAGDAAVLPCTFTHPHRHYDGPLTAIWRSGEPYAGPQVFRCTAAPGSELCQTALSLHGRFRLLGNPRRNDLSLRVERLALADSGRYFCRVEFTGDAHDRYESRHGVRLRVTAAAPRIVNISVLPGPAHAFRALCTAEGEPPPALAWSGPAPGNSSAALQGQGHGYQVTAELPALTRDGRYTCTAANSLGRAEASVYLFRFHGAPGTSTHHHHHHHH
Briefly: indirect ELISA on coated mouse Siglec15-his. As for the experimental part:
The anti-Siglec15 antibodies' cross-reactions to cynomolgus or mouse Siglec15 proteins were measured. Briefly, 96-well micro plates were coated with 100 μl of 2 μg/ml cynomolgus Siglec15-his protein (in house made with SEQ ID NO: 21), or 2 μg/ml mouse Siglec15-his protein (in house made with SEQ ID NO: 22) in carbonate/bicarbonate buffer (pH 9.6) for 2 hours at 37° C. ELISA plates were washed once with wash buffer (PBS+0.05% v/v Tween-20, PBST) and then blocked with 200 μl/well blocking buffer (5% w/v non-fatty milk in PBST) overnight at 4° C. Plates were washed 4 times and incubated with 100 μl serially diluted anti-Siglec15 antibodies of the disclosure or controls (starting at 66.7 nM, 5-fold serial dilution in PBST with 2.5% w/v non-fatty milk) for 40 minutes at 37° C. […] The reaction was stopped 4 minutes later at room temperature with 50 μl 1M H₂SO₄, and the absorbance of each well was read on a microplate reader using dual wavelength mode with 450 nm for TMB and 630 nm as the reference wavelength, then the OD (450-630) values were plotted against antibody concentration. Data was analyzed using Graphpad Prism software and EC₅₀ values were reported.
(In general: In an ELISA, binding on a coated surface is turned into a signal by an enzyme label.)

The target of assay [2] is T2, human Siglec15-mouse Fc protein (human).
T2 construct: In house made
T2 chain: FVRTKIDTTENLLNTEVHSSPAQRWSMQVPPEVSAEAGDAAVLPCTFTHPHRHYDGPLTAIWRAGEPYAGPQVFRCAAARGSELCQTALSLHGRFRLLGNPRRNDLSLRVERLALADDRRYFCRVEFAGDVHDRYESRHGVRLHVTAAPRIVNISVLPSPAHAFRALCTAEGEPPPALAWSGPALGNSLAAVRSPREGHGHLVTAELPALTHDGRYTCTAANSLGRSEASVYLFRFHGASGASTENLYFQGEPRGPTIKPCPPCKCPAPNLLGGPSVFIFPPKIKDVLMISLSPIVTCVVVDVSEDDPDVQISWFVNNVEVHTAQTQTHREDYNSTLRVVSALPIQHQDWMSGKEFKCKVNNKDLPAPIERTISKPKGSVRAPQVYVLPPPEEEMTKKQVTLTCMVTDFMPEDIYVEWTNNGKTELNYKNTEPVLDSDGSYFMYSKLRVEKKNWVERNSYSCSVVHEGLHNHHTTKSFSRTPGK
Briefly: cell based blocking FACS: human Siglec15-mouse Fc in solution, blocked ligand human LRRC4C on LRRC4C-3F12-1B9 cells. On the procedure: The activities of the anti-Siglec15 antibodies to block binding of Siglec15 protein to cell surface LRRC4C were evaluated by Flow Cytometry (FACS), using in house made LRRC4C-3F12-1B9 cells. Briefly, HEK-293 cells (ATCC #CRL-1573) were transfected with pCMV-T-P plasmid constructs with the nucleotide sequence encoding human LRRC4C (amino acid residues Met1-Ile640 of uniprot #Q9HCJ2) inserted between EcoRI and XbaI, following the instruction of lipofectamine 3000 transfection reagent (Thermo Fisher). A stable cell named LRRC4C-3F12-1B9 was chosen for subsequent cell based ligand-blocking assay.
Briefly, the anti-Siglec15 antibodies of the disclosure or controls were diluted with human Siglec15-mouse Fc protein (prepared in-house with SEQ ID NO: 26, 8 μg/ml […] in FACS buffer), starting at 66.67 nM with a 5-fold serial dilution, and incubated at room temperature for 40 minutes. Then, LRRC4C-3F12-1B9 cells were harvested from cell culture flasks, washed twice and re-suspended in PBS containing 2% v/v Fetal Bovine Serum (FACS buffer). Then, 1×10⁵ cells per well in 96 well-plates were incubated in 100 μL of the antibody/Siglec15-mouse Fc mixtures for 40 minutes at 4° C. […] Cells were washed twice and re-suspended in FACS buffer. Fluorescence was measured using a Becton Dickinson FACS Canto II-HTS equipment. Data was analyzed using Graphpad Prism software and IC₅₀ values were reported.

The values below come from patent US20230106715A1 (BIOSION, published 2023).

What is called EC50 is the concentration giving half of the maximal effect. High values mean lower potency in that assay, low ones higher potency in that assay. The term IC50 denotes the concentration that inhibits the measured activity by half.

B1: anti-Siglec15 benchmark (ch5G12) (antibody, human IgG1, kappa, V domains shown)
VH: QVQLQQPGAELVKPGASVKMSCKASGYTFTSYWITWVIQRPGQGLEWIGDIYCGSDTMHYNEKFKNKATLTVDTSSSTAYMQLSSLTSEDSAVYYCARWWDYGSSYDYFDYWGQGTTLTVSS
VL: DIKMTQSPSSMYASLGERVTITCKASQDINSYLSWFQQKPGKSPKTLIYRANRLVDGVPSRFSGSGSGQDYSLTISSLEYEDMGIYYCLQYDEFPYTFGGGTKLEIKR
notes: ch5G12 (US 20190202912A1); also called BM; Siglec15-ch5G9
B1 came in with an EC50 in assay [1] of 0.402 nM. This molecule showed an IC50 in assay [2] of 0.707 nM.
